# Measurements from US20060141529.
# T1: Cortactin isoform 2 (recombinant, purified from baculovirally infected insect cells)
# T1 chain: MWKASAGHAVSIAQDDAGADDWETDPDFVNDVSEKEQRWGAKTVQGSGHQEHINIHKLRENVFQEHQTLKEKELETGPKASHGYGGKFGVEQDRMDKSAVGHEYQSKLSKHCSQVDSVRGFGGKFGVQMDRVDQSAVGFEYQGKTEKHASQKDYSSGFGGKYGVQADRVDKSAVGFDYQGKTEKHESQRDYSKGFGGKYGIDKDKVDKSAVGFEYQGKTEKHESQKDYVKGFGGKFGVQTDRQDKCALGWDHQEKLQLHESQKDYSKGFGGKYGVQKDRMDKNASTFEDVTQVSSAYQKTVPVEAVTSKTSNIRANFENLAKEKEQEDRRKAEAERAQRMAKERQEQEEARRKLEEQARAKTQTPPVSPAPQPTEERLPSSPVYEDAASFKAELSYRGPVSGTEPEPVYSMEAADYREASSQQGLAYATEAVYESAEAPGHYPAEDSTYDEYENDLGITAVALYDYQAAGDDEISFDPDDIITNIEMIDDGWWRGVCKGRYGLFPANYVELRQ
# Target: T1, Cortactin isoform 2 (recombinant, …)
protein,measurement,value
"ARG, wild type, constructed from mouse cDNA (recombinant) (protein) MGQQVGRVGEAPGLQQPQPRGIRGSSAARPSGRRRDPAGRTADAGFNVFTQHDHFASCVEDGFEGDKTGGSSPEVLHRPFGCDAESQALNEAIRWSSKENLLGATESDPNLFVALYDFVASGDNTLSITKGEKLRVLGYNQNGEWSEVRSKNGQGWVPSNYITPVNSLEKHSWYHGPVSRSAAEYLLSSLINGSFLVRESESSPGQLSISLRYEGRVYHYRINTTTDSKVYVTAESRFSTLAELVHHHSTVADGLVTTLHYPAPKCNKPTVYGVSPIHDKWEMERTDITMKHKLGGGQYGEVYVGVWKKYSLTVAVKTFKEDTMEVEEFLKEAAVMKEIKHPNLVQLLGVCTLEPPFYIVTEYMPYGNLLDYLRECSREEVTAVVLLYMATQISSAMEYLEKKNFIHRDLAARNCLVGENHVVKVADFGLSRLMTGDTYTAHAGAKFPIKWTAPESLAYNTFSIKSDVWAFGVLLWEIATYGMSPYPGIDLSQVYDLLEKGYRMEQPEGCPPKVYELMRACWKWSPADRPSFAETHQAFETMFHDSSISEEVAEELGRTASSSSVVPYLPRLPLLPSKTRTLRKQGENKENLDGGLDAAESLASSSAPAGFIRSTQASSGSPALPRKQRDKSPSSLLEDAKETCFTRDRKGGFFSSFMKKRNAPTPPKRSSSFREMENQPHKKYELTGNFSPVASLQNADGFSVAPSQQEPNLVPAKCYGGSFAQRNLCADDDSGGGGGSGTAGGGWSGITGFFTPRLIKKTLGLRAGKPTASDDTSKPFPRSNSTSSMSSGLPEQDRMAMTLPRNCQRSKLQLERTVSTSSQPEENVDRANDMLPKKSEEGAAPARERPKAKLLPRGATALPLRAPDPAITESDSPGVGVAGVAAAPKGKERNGGTRLGVAGVPEDGEQLGWSSPAKAVAVLPTTHNHKVPVLISPTLKHTPADVQLIGTDSQGNKFKLLSEHQVTSSGDKDRPRRVKPKCAPPPPPVMRLLQHPSTCSDPEEEPTAPPAGQHTPETQEGGKKAAPGPVPSSGKPGRPVMPPPQVPLPTSSISPAKMANGTAGTKVALRKTKQAAEKISADKISKEALLECADLLSSAITEPVPNSQLVDTGHQLLDYCSGYVDSIPQTRNKFAFREAVSKLELSLQELQVSSTAAGVPGTNPVLNNLLSCVQEISDVVQR",KM (steady-state in vitro kinase assay),"KM of 110 nM and 60 nM for ABL and ARG, respectively"
same,kcat (steady-state in vitro kinase assay),The kcat for ABL and ARG is 0.05 min-1
